Test results reported in patent US20050176101.

Legend:
[1] = target: His-tagged human c-MET kinase domain constructs (various lengths) coexpressed with PTP1B from pET-N6 BI-PTP, unphosphorylated
[2] = target: T1, His-tagged human Abl kinase domain G227-V515 coexpressed with PTP1b phosphatase domain (pET-SPEC BI-PTP Abl G227-V515-X), unphosphorylated
T1 chain: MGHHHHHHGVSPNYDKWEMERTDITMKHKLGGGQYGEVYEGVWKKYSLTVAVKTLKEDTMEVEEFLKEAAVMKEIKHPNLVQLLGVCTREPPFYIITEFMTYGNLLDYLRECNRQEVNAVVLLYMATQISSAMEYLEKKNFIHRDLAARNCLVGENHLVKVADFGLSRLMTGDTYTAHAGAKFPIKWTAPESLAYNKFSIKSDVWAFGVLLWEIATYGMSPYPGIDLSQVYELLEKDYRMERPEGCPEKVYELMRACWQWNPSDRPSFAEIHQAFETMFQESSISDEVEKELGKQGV

B1: human PTP1b phosphatase domain, residues Met 1 to Gly 283 (protein)
chain: MEMEKEFEQIDKSGSWAAIYQDIRHEASDFPCRVAKLPKNKNRNRYRDVSPFDHSRIKLHQEDNDYINASLIKMEEAQRSYILTQGPLPNTCGHFWEMVWEQKSRGVVMLNRVMEKGSLKCAQYWPQKEEKEMIFEDTNLKLTLISEDIKSYYTVRQLELENLTTQETREILHFHYTTWPDFGVPESPASFLNFLFKVRESGSLSPEHGPVVVHCSAGIGRSGTFCLADTCLLLMDKRKDPSSVDIKKVLLEMRKFRMGLIQTADQLRFSYLAVIEGAKFIMG
Q: Which “state of phosphorylation (methods as described for the Abl kinase domain)” value [1] does the source give for B1 here?
A: The value was “When expressed alone the MET was phosphorylated and when coexpressed with PTP1B the MET was unphosphorylated”.

Q: And the “state of phosphorylation detectable with PY20 anti-phospho-Tyr antibody (Western blot)” value [2]?
A: The value was “the Abl coexpressed with PTP1B has little or no phosphorylation above background, whereas Abl coexpressed alone is highly phosphorylated”.
